The term Kd denotes the concentration at which binding is half-saturated.

These results are taken from article PMC13090976 (Cell Stress & Chaperones, 2026).

B3: FITC-Ahx-GSGPTIEEVD (peptide)
peptide: {FITC-Ahx}-GSGPTIEEVD
notes: C-terminal tail of human HSP70 (HSPA1A); also called EEVD (fluorescence polarization tracer); unphosphorylated EEVD peptide; source: synthetic peptide (Lifetein/Genscript)

Square brackets hold non-standard residues; d marks the D form. Ends that are not written are not given here. Peptide text beside a SMILES is read from it. * marks the point of attachment. FITC = O=C1OC2(c3ccc(O)cc3Oc3cc(O)ccc32)c2ccc(NC(=S)*)cc21; Biotin = O=C1N[C@H]2[C@H](CS[C@H]2CCCCC(=O)*)N1; pT = C[C@@H](OP(=O)(O)O)[C@H](N)C(=O)O; Ahx = NCCCCCC(=O)O

One data set concerns the target T1, full-length CHIP-G132N (Homo sapiens, UniProt Q9UNE7, G132N).
T1 construct: HIS; made in house
T1 sequence (Q9UNE7 1-303 G132N): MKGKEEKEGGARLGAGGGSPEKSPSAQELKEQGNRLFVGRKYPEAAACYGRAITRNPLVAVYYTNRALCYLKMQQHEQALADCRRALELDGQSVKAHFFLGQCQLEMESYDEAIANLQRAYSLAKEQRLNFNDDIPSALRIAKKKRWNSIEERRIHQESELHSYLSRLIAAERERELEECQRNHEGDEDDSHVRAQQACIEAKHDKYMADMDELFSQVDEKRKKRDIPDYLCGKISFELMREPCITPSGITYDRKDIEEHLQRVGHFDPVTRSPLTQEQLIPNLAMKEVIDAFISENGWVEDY
Briefly: Fluorescence polarization, full-length CHIP-G132N. The following applies: Fig. 4d binding curve, value in picture; FITC-Ahx-labelled peptide 20 nM, room temperature, 30 min; n = 3 independent experiments. The text has this:
(§1) Plasmids were propagated in DH5α Escherichia coli and purified using Qiagen Miniprep or Bio-Rad Midiprep kits. Mutations were introduced with Q5 (NEB) or QuikChange II XL (Agilent) kits and verified by Sanger sequencing. Peptides (Lifetein/Genscript) included unphosphorylated […] (EEVD), phosphorylated GP(pT)IEEVD (pEEVD), biotin-[…] (biotin-EEVD), biotin-GSGSGP(pT)IEEVD (biotin-pEEVD), and FITC-Ahx-[…] or FITC-Ahx-GSGP(pT)IEEVD for polarization assays. Recombinant CHIP-TPR (residues 21-154) and full-length CHIP proteins were expressed and purified as described.[8], [29]
(§2) The N-terminally labeled peptides were loaded into PCR reaction tubes at 2X (40 nM), resulting in a final concentration of 20 nM. Recombinant CHIP constructs were added to the tubes at the indicated concentrations. The reaction was left at room temperature for 30 min before loading into black, low-volume, round-bottom 384-well plates (Greiner Bio-One) with inter-run triplicates at 18 μl each and subsequently repeated independently 2 more times. […] The polarization readings were normalized to the dilution buffer. Gain adjustment was made to the tracer HSP70 peptides alone.
In general terms: In fluorescence polarisation assays a small probe gives low polarisation when free and higher when bound to something large.

In data set [1] the target is T2, full-length wild-type CHIP (Homo sapiens, UniProt Q9UNE7).
T2 construct: Recombinant CHIP-TPR (residues 21-154) and full-length CHIP proteins were expressed and purified as described; HIS; made in house
T2 sequence (Q9UNE7 1-303): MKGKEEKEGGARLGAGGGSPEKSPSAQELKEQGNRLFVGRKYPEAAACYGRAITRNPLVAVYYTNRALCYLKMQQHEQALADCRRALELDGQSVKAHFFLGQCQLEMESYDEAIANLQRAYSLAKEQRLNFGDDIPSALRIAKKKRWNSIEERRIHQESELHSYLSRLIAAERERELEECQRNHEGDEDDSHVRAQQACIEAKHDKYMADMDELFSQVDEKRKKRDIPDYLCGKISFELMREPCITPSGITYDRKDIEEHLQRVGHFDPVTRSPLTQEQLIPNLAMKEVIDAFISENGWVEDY
Briefly: Fluorescence polarization, full-length wild-type CHIP with HSP70 C-terminal peptide. To be noted: Fig. 4c binding curve, value in picture; FITC-Ahx-labelled peptide 20 nM, room temperature, 30 min; n = 3 independent experiments.
Source text: as §1, §2

The target in the next data set is CHIP (UniProt Q9UNE7). Briefly: fluorescence polarization titration. To be noted: reference: unphosphorylated EEVD peptide; sites T636.
The subject of the next data set is proteasome. Put plainly: Proteasome-dependent turnover of HSP70 T636 variants. It counts as cell-based. To be noted: relative to WT and T636A, Figure S3.
A further data set addresses T3, G132N CHIP-TPR (human, UniProt Q9UNE7 21-154, G132N).
T3 construct: CHIP (STUB1), human, TPR domain with G132N; also called G132N variant
T3 sequence (looked up): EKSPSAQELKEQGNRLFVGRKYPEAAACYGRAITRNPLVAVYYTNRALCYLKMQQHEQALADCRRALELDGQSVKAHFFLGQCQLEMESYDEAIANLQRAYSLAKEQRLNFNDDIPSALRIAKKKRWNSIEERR
Put plainly: BLI; BLItz, biotinylated peptide loaded on streptavidin sensors, TPR construct at 1 to 25 uM in solution; 20 mM HEPES, 150 mM NaCl, 5 mM beta-mercaptoethanol, pH 7.2; Kd = koff/kon from individual fits. To be noted: both partners purified.

Data set [2] addresses T4, human CHIP-TPR (residues 21-154) (human, UniProt Q9UNE7 21-154).
T4 construct: also called wild-type CHIP-TPR
T4 sequence (looked up): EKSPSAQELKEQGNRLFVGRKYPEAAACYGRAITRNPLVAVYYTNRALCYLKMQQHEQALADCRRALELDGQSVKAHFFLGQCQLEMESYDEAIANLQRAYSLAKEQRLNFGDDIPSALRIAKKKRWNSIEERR
Described as above. The following applies: both partners purified.

The target in data set [3] is T5, CHIP TPR (fluorescence polarization construct) (human).
T5 chain: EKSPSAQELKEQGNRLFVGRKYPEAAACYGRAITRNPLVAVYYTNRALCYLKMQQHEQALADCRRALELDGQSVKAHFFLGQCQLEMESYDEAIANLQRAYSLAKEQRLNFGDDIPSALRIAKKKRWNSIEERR
Briefly: FP.

The target of data set [4] is T6, full-length CHIP (wild-type) (human, UniProt Q9UNE7 1-303).
T6 construct: CHIP (STUB1), full length, wild-type; Vector CHIP of the JCS lab; also called CHIP-WT; STUB1
T6 sequence (looked up): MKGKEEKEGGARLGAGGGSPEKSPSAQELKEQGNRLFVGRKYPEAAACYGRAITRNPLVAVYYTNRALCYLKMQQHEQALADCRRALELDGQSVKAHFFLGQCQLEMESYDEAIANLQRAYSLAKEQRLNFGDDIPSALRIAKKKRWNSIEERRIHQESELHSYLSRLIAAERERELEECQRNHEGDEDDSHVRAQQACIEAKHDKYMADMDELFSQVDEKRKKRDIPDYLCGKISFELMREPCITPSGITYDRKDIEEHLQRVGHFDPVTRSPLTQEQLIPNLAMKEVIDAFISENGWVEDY
Briefly: fluorescence polarisation; FITC-labelled peptide at 20 nM, recombinant CHIP constructs added at varied concentrations, 30 min at room temperature; one-site total binding fit, normalised to % of maximum binding. The following applies: both partners purified.

For the data set “FITC-Ahx-GSGPTIEEVD”, the target named is B3. The data set is described as above. To be noted: both partners purified.
Data set [5] relates to HSP70. Put plainly: In vitro HSP70 ubiquitination. It is filed as biochemical. The following applies: Figure S2.
Data set [6] deals with HSP70. Put plainly: Co-immunoprecipitation, steady-state HSP70-CHIP interaction. It is filed as cell-based. To be noted: phosphomimetic HSP70, Figure S1.
Data set [7] deals with HSP70. Put plainly: NanoBiT, transient cellular HSP70-CHIP interaction. It counts as cell-based. To be noted: Figure S1.

As to `CC[C@H](C)[C@H](NC(=O)[C@@H](NC(=O)[C@@H]1CCCN1C(=O)CN)[C@@H](C)O)C(=O)N[C@@H](CCC(=O)O)C(=O)N[C@@H](CCC(=O)O)C(=O)N[C@H](C(=O)N[C@@H](CC(=O)O)C(=O)O)C(C)C` [EEVD] (H-GPTIEEVD-OH), the figures for the dissociation constant Kd (on full-length CHIP-G132N; in [1]) were 9.2 nM and 6.5 nM, respectively. For `CC[C@H](C)[C@H](NC(=O)[C@@H](NC(=O)[C@@H]1CCCN1C(=O)CN)[C@@H](C)OP(=O)(O)O)C(=O)N[C@@H](CCC(=O)O)C(=O)N[C@@H](CCC(=O)O)C(=O)N[C@H](C(=O)N[C@@H](CC(=O)O)C(=O)O)C(C)C` [pEEVD, GP(pT)IEEVD] (H-GP[pT]IEEVD-OH), the Kd is 96 nM at full-length CHIP-G132N and 46 nM in data set [1]. Regarding “HSP70 C-terminal tail (from UniProt P0DMV8) pT636 pEEVD peptide”, the fold change entry in the data set with CHIP is listed as “weaker”. Turning to “T636D phosphomimetic: HSP70 T636D phosphomimetic variant”, the turnover entry in the data set with proteasome is reported as “accelerated proteasome-dependent turnover”.

B1: biotin-GSGSGP(pT)IEEVD (peptide)
peptide: Biotin-GSGSGP[pT]IEEVD
notes: C-terminal tail of human HSP70 (HSPA1A), Thr636 phosphorylated; also called biotin-pEEVD; biotinylated pEEVD peptide; source: synthetic peptide (Lifetein/Genscript)
Consider B1, for which the Kd worked out at 1250 nM with G132N CHIP-TPR and 5230 nM in [2].

B2: biotin-GSGSGPTIEEVD (peptide)
peptide: Biotin-GSGSGPTIEEVD
notes: C-terminal tail of human HSP70 (HSPA1A); also called biotin-EEVD; biotinylated EEVD peptide; source: synthetic peptide (Lifetein/Genscript)
As for B2, the dissociation constant (Kd) in the data set with G132N CHIP-TPR was determined as 597 nM; in data set [2], 592 nM. Turning to B3, the equilibrium dissociation constant (Kd) in [3] was determined as 42000 nM; in [4], 7 nM.

B4: CHIP TPR-CC (domain or fragment)
chain: MKGKEEKEGGARLGAGGGSPEKSPSAQELKEQGNRLFVGRKYPEAAACYGRAITRNPLVAVYYTNRALCYLKMQQHEQALADCRRALELDGQSVKAHFFLGQCQLEMESYDEAIANLQRAYSLAKEQRLNFGDDIPSALRIAKKKRWNSIEERRIHQESELHSYLSRLIAAERERELEECQRNHEGDEDDSHVRAQQACIEAKHDKYMADMDELFSQVDEKRKKR
With B4, the Kd in the data set with FITC-Ahx-GSGPTIEEVD was found to be 42 nM.

B5: CHIP TPR (fluorescence polarization construct) (domain or fragment)
chain: EKSPSAQELKEQGNRLFVGRKYPEAAACYGRAITRNPLVAVYYTNRALCYLKMQQHEQALADCRRALELDGQSVKAHFFLGQCQLEMESYDEAIANLQRAYSLAKEQRLNFGDDIPSALRIAKKKRWNSIEERR
Take B5: the Kd with FITC-Ahx-GSGPTIEEVD was found to be 28 nM.

B6: G132N: structure-guided G132N substitution variant of CHIP (protein)
chain: MKGKEEKEGGARLGAGGGSPEKSPSAQELKEQGNRLFVGRKYPEAAACYGRAITRNPLVAVYYTNRALCYLKMQQHEQALADCRRALELDGQSVKAHFFLGQCQLEMESYDEAIANLQRAYSLAKEQRLNFNDDIPSALRIAKKKRWNSIEERRIHQESELHSYLSRLIAAERERELEECQRNHEGDEDDSHVRAQQACIEAKHDKYMADMDELFSQVDEKRKKRDIPDYLCGKISFELMREPCITPSGITYDRKDIEEHLQRVGHFDPVTRSPLTQEQLIPNLAMKEVIDAFISENGWVEDY
modifications: left off: HIS, end not stated, state not stated
notes: structure-guided G132N substitution variant of CHIP
With B6, the HSP70 ubiquitination activity result in the data set on HSP70 [5] is on record as “retained HSP70 ubiquitination activity”. In addition, the “rescue of interaction in co-immunoprecipitation” value in the data set with HSP70 [6] was “no rescue”. Moreover, in the data set with HSP70 [7], the “binding to the non-mimetic HSP70” value is reported as “overall reducing binding”.
